Data as given in patent publication US20150246949A1, “Desmoglein 2 (DSG2) Binding Proteins and Uses Therefor” (UNIVERSITY OF WASHINGTON THROUGH ITS CENTER FOR …, priority 2012, published 2015).
“Also recorded” adds a separate entry of the source.

Columns and labels:
[1] = test system: polarized colon cancer T84 cells; assay: Transepithelial electrical resistance (TEER) permeability assay; assay type: cell-based; conditions: for Effect on TEER: 5 μg dimeric Ad3 fiber knob added 1 hour to apical chamber
Procedure: FIG. 5. Correlation of reduced DSG2 binding with the ability to open epithelial junctions. A) Transepithelial electrical resistance (TEER) measured on polarized colon cancer T84 cells. Cells were cultured in transwell chambers until the TEER was constant, i.e. tight junctions had formed. A total of 5 μg of dimeric Ad3 fiber knobs in PBS was then added for 1 hour to the apical chamber. TEER was measured at the indicated time points. N=6. For time points 1.5 and 4 hours the difference between JO-1 vs D261N and N186D was significant (p<0.01). The arrows indicate the addition and removal of Ad3 fiber knobs. B) Enhancement of irinotecan therapy. A total of 4×10^6 A549 cells were injected subcutaneously into CB17-SCID/beige mice. Once the tumor reached a volume of ˜100 mm^3 (day 15 after implantation), the mice were injected intravenously with 2 mg/kg JO-1, E299V, N186D, or PBS, followed by an intravenous injection of irinotecan (37.5 mg/kg) one hour later. The treatment was repeated on day 25. N=5. […] The difference between “irinotecan” vs “JO-1+irinotecan” was significant (p<0.01) from day 20 on.
FIG. 9. Analysis of dimeric Ad3 fiber knob mutants with increased affinity to DSG2. A) Competition of Ad3-GFP virus infection on HeLa cells with dimeric affinity-enhanced mutant Y250F and JO-1 (dimeric wt Ad3 fiber knob). The experimental setting is as described for FIG. 3C. left panel: percentage of GFP positive cells. Right panel: mean fluorescence intensity. N=3. The standard deviation was less than 10%. B) Competition of Ad3-GFP virus infection on HeLa cells by Ad3 knob mutants with enhanced DSG2 binding but without dimerization domain. 1.5×10^5 HeLa cells were seeded into 24 well plates. Cells were incubated with the Ad3 knob mutants at the increasing concentrations for one hour at room temperature. 100 pfu/cell of Ad3GFP virus were then added and GFP expression was analyzed 18 hours later. C) TEER on colon cancer T84 cells. The experimental setting was the same as for FIG. 5A. The TEER at 4 hours is shown. N=3.
A total of 5×10^5 T84 cells were seeded in 12 mm transwell inserts (PET membrane, with 0.4 μm pore size (Corning, N.Y.) and cultured for >14 days until transepithelial electrical resistance (TEER) was stable. Culture medium was changed every 2-3 days. The cells were exposed to DSG2 ligands (20 μg/ml) in adhesion medium (DMEM, 1% FBS, 2 mM MgCl2, 20 mM HEPES) for 15 min at room temperature and TEER was measured and calculated as described elsewhere (39).

[2] = Serum clearance of JO-1 and JO-4 by ELISA; assay type: in vivo, hDSG2 transgenic mice; conditions: 2 mg/kg i.v.; for Decline of serum concentration within an hour after injection: TC1-hDSG2 tumors ~600 mm^3, N=3; for Serum concentration plateau: after one hour post-injection
Procedure: FIG. 11. Pharmacokinetics, toxicity, and immunogenicity of JO-4. A) Serum clearance of JO-1 and JO-4. hDSG2 transgenic mice with subcutaneous TC1-hDSG2 tumors (˜600 mm^3) were intravenously injected with JO-1 or JO-4 (2 mg/kg) and serum samples were analyzed for by ELISA. N=3. Note that the y-axis has a log scale. B) Lymphocyte and platelet counts in hDSG2/TC1-hDSG2 transgenic mice after JO-1 or JO-4 injection. N=3. C) Therapy studies in immunocompetent hDSG2 transgenic mice with TC1-hDSG2 tumors. When tumors reached a volume of ˜80 mm^3, JO-1 or JO-4 (2 mg/kg) or PBS was injected intravenously followed one hour later by PLD/Doxil (i.v. 1.5 mg/kg). Treatment was repeated as indicated by arrows. Tumors were then allowed to re-grow for about two weeks. From day 15 on serum anti-JO-1/J)-4 antibodies were detectable by ELISA. Two more treatment cycles were performed at day 28 and day 35. […] The difference between JO-1/PLD vs JO-4/PLD is significant from day 31 on. N=10.
Two of the affinity enhanced version of JO-1, Y293D and V250F were analyzed in in vivo assay. We called these mutants JO-2 and JO-4, respectively. The first study was performed in a xenograft model derived from A549 cells similar to the study described for FIG. 5B. […] Additional studies were performed in xenograft tumors derived from ovc316 cells (30, 32). Ovc316 cells are Her2/neu positive epithelial tumor cells derived from an ovarian cancer biopsy. These cells can undergo EMT and the reverse process, mesenchymal-to-epithelial-transition (MET), under specific conditions in vitro and in vivo. A subfraction of ovc316 cells that is positive for Nanog, CD133, and E-cadherin is enriched for cancer stem cells, i.e. self-renewing cells with pluripotent potential and tumor forming ability (30). Ovc316 cells therefore closely model the heterogeneity and plasticity seen in tumors in situ. […] Finally, we tested JO-4 in a model for triple-negative breast cancer (TNBC). TNBC is characterized by a lack or minimal expression of estrogen receptor (ER), progesterone receptor (PR) and the absence of Her2/neu overexpression. TNBC accounts for 15% of all breast cancers. Overall survival is poor compared with that in patients who have other phenotypes. A characteristic feature of TNBC is high levels of DSG2 and epithelial junctions. Promising clinical results in the treatment of TNBS have been achieved with nanoparticle, albumin-conjugated paclitaxel (nab-paclitaxel/Abraxane™) alone or in combination with the EGFR-targeting mAb cetuximab/Erbitux™ (38). […] Because of its therapeutic relevance, we further studied JO-4 in an adequate mouse tumor model. […] These mice were subcutaneously implanted with syngeneic TC1-hDSG tumors. […] We also analyzed hematological parameters after i.v. JO-1 and JO-4 injection.

B1: D261N (protein)
chain: MKVSALKEKVSALKEKVSALKEKVSALKEKVSALKEGSGGGSGGGSGGGSNSIALKNNTLWTGPKPEANCIIEYGKQNPDSKLTLILVKNGGIVNGYVTLMGASDYVNTLFKNKNVSINVELYFDATGHILPDSSSLKTDLELKYKQTADFSARGFMPSTTAYPFVLPNAGTHNENYIFGQCYYKASNGALFPLEVTVMLNKRLPDSRTSYVMTFLWSLNAGLAPETTQATLITSPFTFSYIREDD
[1]
  Effect on TEER: no effect on the TEER

B2: JO-4 (protein)
chain: MKVSALKEKVSALKEKVSALKEKVSALKEKVSALKEGSGGGSGGGSGGGSNSIALKNNTLWTGPKPEANCIIEYGKQNPDSKLTLILVKNGGIVNGYVTLMGASDYVNTLFKNKNVSINVELYFDATGHILPDSSSLKTDLELKYKQTADFSARGFMPSTTAYPFVLPNAGTHNENFIFGQCYYKASDGALFPLEVTVMLNKRLPDSRTSYVMTFLWSLNAGLAPETTQATLITSPFTFSYIREDD
[1]; dimeric affinity-enhanced mutants, TEER at 4 hours, N=3
  TEER compared to JO-1: significantly higher
[2]
  Decline of serum concentration within an hour after injection: declined more than one order of magnitude; also recorded: significantly greater
  Serum concentration plateau: ~100 ng/mL

B3: JO-1: recombinant protein with the Ad3 fiber knob and a domain for self-dimerization of trimeric knobs (SEQ ID NO:27) (protein)
chain: MKVSALKEKVSALKEKVSALKEKVSALKEKVSALKEGSGGGSGGGSGGGSNSIALKNNTLWTGPKPEANCIIEYGKQNPDSKLTLILVKNGGIVNGYVTLMGASDYVNTLFKNKNVSINVELYFDATGHILPDSSSLKTDLELKYKQTADFSARGFMPSTTAYPFVLPNAGTHNENYIFGQCYYKASDGALFPLEVTVMLNKRLPDSRTSYVMTFLWSLNAGLAPETTQATLITSPFTFSYIREDD
[1]
  Effect on TEER: rapid decrease in the TEER
[2]
  Decline of serum concentration within an hour after injection: declined more than one order of magnitude
  Serum concentration plateau: ~100 ng/mL
